Key:
Experiment in all cases: cell-based or functional assay
[1] = target: bovine serum albumin (bovine) (UniProt P02769)
[2] = target: collagen type IV
[3] = target: fibronectin

Sequence of UniProt P02769 (P02769 25-607 limits assumed): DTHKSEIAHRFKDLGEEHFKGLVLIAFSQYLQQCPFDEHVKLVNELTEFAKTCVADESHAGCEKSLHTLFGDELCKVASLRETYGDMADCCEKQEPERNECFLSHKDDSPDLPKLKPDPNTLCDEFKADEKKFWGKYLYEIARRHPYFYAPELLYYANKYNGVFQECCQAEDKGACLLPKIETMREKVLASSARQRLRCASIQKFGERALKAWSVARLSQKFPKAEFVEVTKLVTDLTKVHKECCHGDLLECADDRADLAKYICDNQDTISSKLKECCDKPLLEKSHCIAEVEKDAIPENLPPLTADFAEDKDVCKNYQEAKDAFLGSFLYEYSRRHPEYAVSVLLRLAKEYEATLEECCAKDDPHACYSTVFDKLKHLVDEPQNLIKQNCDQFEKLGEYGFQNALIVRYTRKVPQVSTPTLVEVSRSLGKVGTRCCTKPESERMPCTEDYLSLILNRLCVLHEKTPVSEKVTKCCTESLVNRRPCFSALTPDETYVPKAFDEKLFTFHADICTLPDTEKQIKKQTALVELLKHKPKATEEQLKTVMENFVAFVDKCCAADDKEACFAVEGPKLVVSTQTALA

B1: saratin (protein)
chain: EEREDCWTFYANRKYTDFDKSFKKSSDLDECKKTCFKTEYCYIVFEDTVNKECYYNVVDGEELDQEKFVVDENFTENYLTDCEGKDAGNAAGTGDESDEVDED
B1 gave an IC50 of saratin inhibition of MCP-1-induced human monocyte migration through filters coated with 1 mg/mL BSA (Boyden chamber) [1] of 37 nM, a Saratin IC50, MCP-1-induced human monocyte migration through filters coated with BSA, coating conc. 1.0 as the table prints it (the text gives 1.1 nM for 0.01 mg/mL BSA) (Boyden chamber) [1] of 1.1 nM and a Saratin IC50, MIP-1alpha-induced human T lymphocyte migration through filters coated with BSA, coating conc. 1.0 (Boyden chamber) [1] of 185 nM. The Saratin IC50, MCP-1-induced human monocyte migration through filters coated with Collagen IV, coating conc. 0.01 (Boyden chamber) [2] was 0.172 nM, the Saratin IC50, MCP-1-induced human monocyte migration through filters coated with Collagen IV, coating conc. 1.0 (Boyden chamber) [2] was 0.0623 nM and the Saratin IC50, MIP-1alpha-induced human T lymphocyte migration through filters coated with Collagen IV, coating conc. 0.01 (Boyden chamber) [2] was 6.86 nM. The Saratin IC50, MIP-1alpha-induced human T lymphocyte migration through filters coated with Collagen IV, coating conc. 1.0 (Boyden chamber) [2] was 0.0079 nM, the Saratin IC50, MCP-1-induced human monocyte migration through filters coated with Fibronectin, coating conc. 1.0 (Boyden chamber) [3] was 19.4 nM and the Saratin IC50, MIP-1alpha-induced human T lymphocyte migration through filters coated with Fibronectin, coating conc. 1.0 (Boyden chamber) [3] was 3.69 nM.

Reference: patent US20110034396A1
